Data taken from article PMC7954794, “Protein context shapes the specificity of SH3 domain-mediated interactions in vivo” (Nature Communications, 2021).

B1: YGL252C (protein, UniProt P32608 1-588, looked up)
Retrograde regulation protein …: MSTLSDSDTETEVVSRNLCGIVDIGSNGIRFSISSKAAHHARIMPCVFKDRVGLSLYEVQYNTHTNAKCPIPRDIIKEVCSAMKRFKLICDDFGVPETSVRVIATEATRDAINADEFVNAVYGSTGWKVEILGQEDETRVGIYGVVSSFNTVRGLYLDVAGGSTQLSWVISSHGEVKQSSKPVSLPYGAGTLLRRMRTDDNRALFYEIKEAYKDAIEKIGIPQEMIDDAKKEGGFDLWTRGGGLRGMGHLLLYQSEGYPIQTIINGYACTYEEFSSMSDYLFLKQKIPGSSKEHKIFKVSDRRALQLPAVGLFMSAVFEAIPQIKAVHFSEGGVREGSLYSLLPKEIRAQDPLLIASRPYAPLLTEKYLYLLRTSIPQEDIPEIVNERIAPALCNLAFVHASYPKELQPTAALHVATRGIIAGCHGLSHRARALIGIALCSRWGGNIPESEEKYSQELEQVVLREGDKAEALRIVWWTKYIGTIMYVICGVHPGGNIRDNVFDFHVSKRSEVETSLKELIIDDANTTKVKEESTRKNRGYEVVVRISKDDLKTSASVRSRIITLQKKVRKLSRGSVERVKIGVQFYEE
B2: YJL128C (protein, UniProt P08018 1-668, looked up)
MAP kinase kinase PBS2: MEDKFANLSLHEKTGKSSIQLNEQTGSDNGSAVKRTSSTSSHYNNINADLHARVKAFQEQRALKRSASVGSNQSEQDKGSSQSPKHIQQIVNKPLPPLPVAGSSKVSQRMSSQVVQASSKSTLKNVLDNQETQNITDVNINIDTTKITATTIGVNTGLPATDITPSVSNTASATHKAQLLNPNRRAPRRPLSTQHPTRPNVAPHKAPAIINTPKQSLSARRGLKLPPGGMSLKMPTKTAQQPQQFAPSPSNKKHIETLSNSKVVEGKRSNPGSLINGVQSTSTSSSTEGPHDTVGTTPRTGNSNNSSNSGSSGGGGLFANFSKYVDIKSGSLNFAGKLSLSSKGIDFSNGSSSRITLDELEFLDELGHGNYGNVSKVLHKPTNVIMATKEVRLELDEAKFRQILMELEVLHKCNSPYIVDFYGAFFIEGAVYMCMEYMDGGSLDKIYDESSEIGGIDEPQLAFIANAVIHGLKELKEQHNIIHRDVKPTNILCSANQGTVKLCDFGVSGNLVASLAKTNIGCQSYMAPERIKSLNPDRATYTVQSDIWSLGLSILEMALGRYPYPPETYDNIFSQLSAIVDGPPPRLPSDKFSSDAQDFVSLCLQKIPERRPTYAALTEHPWLVKYRNQDVHMSEYITERLERRNKILRERGENGLSKNVPALHMGGL
B3: YJL155C (protein, UniProt P32604 1-452, looked up)
Fructose-2,6-bisphosphatase: MGYSTISNDNDIKVCVIMVGLPARGKSFISQKIIRYLSWLSIKAKCFNVGNYRRDVSGNVPMDAEFFNFENTDNFKLRELAAQNAIKDIVNFFTKEDGSVAVFDATNSTRKRRKWLKDICEKNNIQPMFLESWSNDHELIINNAKDIGSTSPDYENSEPHVAEADFLERIRQYERFYEPLDPQKDKDMTFIKLVNIIEEVVINKIRTYLESRIVFYVMNIRPKPKYIWLSRHGESIYNVEKKIGGDSSLSERGFQYAKKLEQLVKESAGEINLTVWTSTLKRTQQTANYLPYKKLQWKALDELDAGVCDGMTYEEIEKEYPEDFKARDNDKYEYRYRGGESYRDVVIRLEPVIMELERQENVLIITHQAVLRCIYAYFMNVPQEESPWMSIPLHTLIKLEPRAYGTKVTKIKANIPAVSTYKEKGTSQVGELSQSSTKLHQLLNDSPLEDKF
B4: YLR330W (protein, UniProt Q12114 1-671, looked up)
Chitin biosynthesis protein …: MSSVDVLLTVGKLDASLALLTTQDHHVIEFPTVLLPENVKAGSIIKMQVSQNLEEEKKQRNHFKSIQAKILEKYGTHKPESPVLKIVNVTQTSCVLAWDPLKLGSAKLKSLILYRKGIRSMVIPNPFKVTTTKISGLSVDTPYEFQLKLITTSGTLWSEKVILRTHKMTDMSGITVCLGPLDPLKEISDLQISQCLSHIGARPLQRHVAIDTTHFVCNDLDNEESNEELIRAKHNNIPIVRPEWVRACEVEKRIVGVRGFYLDADQSILKNYTFPPVNEEELSYSKENEPVAEVADENKMPEDTTDVEQVASPNDNESNPSEAKEQGEKSGHETAPVSPVEDPLHASTALENETTIETVNPSVRSLKSEPVGTPNIEENKADSSAEAVVEEPNEAVAESSPNEEATGQKSEDTDTHSNEQADNGFVQTEEVAENNITTESAGENNEPADDAAMEFGRPEAEIETPEVNESIEDANEPAEDSNEPVEDSNKPVKDSNKPVEDSNKPVEDSNKPVEDSNKPVEDANEPVEDTSEPVEDAGEPVQETNEFTTDIASPRHQEEDIELEAEPKDATESVAVEPSNEDVKPEEKGSEAEDDINNVSKEAASGESTTHQKTEASASLESSAVTEEQETTEAEVNTDDVLSTKEAKKNTGNSNSNKKKNKKNKKKGKKK
B5: YMR216C (protein, UniProt Q03656 1-742, looked up)
Serine/threonine-protein …: MGSSINYPGFVTKSAHLADTSTDASISCEEATSSQEAKKNFFQRDYNMMKKAPAPTKSKLSLALQTSKSSSSANGTVQEDTSSKTEDFSTKSIKKKPDSGVESHVSIQSDSGPQSDSDLDSDSSISSCDERNEESLKDYRPGGYHPAFKGEPYKDARYILVRKLGWGHFSTVWLAKDMVNNTHVAMKIVRGDKVYTEAAEDEIKLLQRVNDADNTKEDSMGANHILKLLDHFNHKGPNGVHVVMVFEVLGENLLALIKKYEHRGIPLIYVKQISKQLLLGLDYMHRRCGIIHTDIKPENVLMEIGDVEGIVQMVEALDKQKREAKRLQRHVSRSSDITANDSSDEKWAECQTSMPCGSSSNSKSRSIEKDLSKRCFRRPRRHTIITGSQPLPSPISSSNFFEMRAHFCGSSHNSFSSVSGNRNIPSSINNNSINNGIGIKNSNNSFLNSVPHSVTRMFINEDSNDNNNNDNSKNKNNNNNNSNNNNNEDIMNTPLHEEQLADSLSTFDISNISQSSDTNGPYISNTMDSNSNVSTDINSPENLIQIKIADLGNACWYDEHYTNSIQTREYRSPEVLLGAPWGCGADIWSTACLIFELITGDFLFEPDEGHSYTKDDDHIAQIIELLGELPSYLLRNGKYTRTFFNSRGLLRNISKLKFWPLEDVLTEKYKFSKDEAKEISDFLSPMLQLDPRKRADAGGLVNHPWLKDTLGMEEIRVPDRELYGSGSDIPGWFEEVRDHKRH
B6: YNL020C (protein, UniProt P53974 1-638, looked up)
Actin-regulating kinase 1: MNQPQIGTYNVGTQLTVGSHQVEIIKYLTSGGFAQVYSALINPPDPHSNSSVACLKRVIVPDKPSLNTLRAEVDAMRLLKNNRYVVSYIDSHAAKAMLHNGSYEVFVLMEYCERGGLIDFMNTRLQNRLHEFEILQIMSQVTQGVAAMHALQPPLIHRDIKIENVLISANNEYKLCDFGSVCGIIRPPRNSQELSYVQQDILKNTTAQYRSPEMIDTFRGLPIDEKSDIWALGIFLYKLCYYTTPFEKGGDLAILSGKFEFPLYPNYSEQLKGLIRDILVQDPRHRPNVYQLLKRISIMQNVPCPINDIQVVQAPSSHLNLTELHQLSATQNILSLNSPTTMENTMPNATFQISMADNTTTAQMHPNRKPSQIAYDASFSNSAKGSQPLFDKSQNMYHALDPPLVEPLASSVSNNDNELKANSATKLKQAIVSEAHTFRQNNSIDFPLQNIIPQYEDSSSSSDESYSGDVDELKKTRSLGSYSTRGNIKKNQSVKESLTSSSLPGTSFTPTSTKVNLKHENSPFKSTFVNTIDNSKDDLNKPSYEDLDVSKQNLKNSIQQRMIDKLNSSEESFNARKMSKVKLHEKGEIDKPTMLKSSGPISKDKKTKPTPPPKPSHLKPKPPPKPLLLAGRKLSLDK
B7: YNL098C (protein, UniProt P01120 2-319, looked up)
Ras-like protein 2: PLNKSNIREYKLVVVGGGGVGKSALTIQLTQSHFVDEYDPTIEDSYRKQVVIDDEVSILDILDTAGQEEYSAMREQYMRNGEGFLLVYSITSKSSLDELMTYYQQILRVKDTDYVPIVVVGNKSDLENEKQVSYQDGLNMAKQMNAPFLETSAKQAINVEEAFYTLARLVRDEGGKYNKTLTENDNSKQTSQDTKGSGANSVPRNSGGHRKMSNAANGKNVNSSTTVVNARNASIESKTGLAGNQATNGKTQTDRTNIDNSTGQAGQANAQSANTVNNRVNNNSKAGQVSNAKQARKQQAAPGGNTSEASKSGSGGCC
B8: YNL255C (protein, UniProt P53849 1-153, looked up)
Zinc finger protein GIS2: MSQKACYVCGKIGHLAEDCDSERLCYNCNKPGHVQTDCTMPRTVEFKQCYNCGETGHVRSECTVQRCFNCNQTGHISRECPEPKKTSRFSKVSCYKCGGPNHMAKDCMKEDGISGLKCYTCGQAGHMSRDCQNDRLCYNCNETGHISKDCPKA
B9: YGL099W (protein, UniProt P53145 1-640, looked up)
Large subunit GTPase 1: MPPKEAPKKWKAPKGPKPTHRKNKNKLELGRAIKYARQKENAIEYLPDGEMRFTTDKHEANWVKLRSVTQESALDEFLSTAALADKDFTADRHSNVKIIRMDSGNDSATSQGFSMTNEQRGNLNAKQRALAKDLIVPRRPEWNEGMSKFQLDRQEKEAFLEWRRKLAHLQESNEDLLLTPFERNIEVWKQLWRVVERSDLVVQIVDARNPLLFRSVDLERYVKESDDRKANLLLVNKADLLTKKQRIAWAKYFISKNISFTFYSALRANQLLEKQKEMGEDYREQDFEEADKEGFDADEKVMEKVKILSIDQLEELFLSKAPNEPLLPPLPGQPPLINIGLVGYPNVGKSSTINSLVGAKKVSVSSTPGKTKHFQTIKLSDSVMLCDCPGLVFPNFAYNKGELVCNGVLPIDQLRDYIGPAGLVAERIPKYYIEAIYGIHIQTKSRDEGGNGDIPTAQELLVAYARARGYMTQGYGSADEPRASRYILKDYVNGKLLYVNPPPHLEDDTPYTREECEEFNKDLYVFDRLPDTRKEQVQNAAKAKGIDIVDLARDLNQLTFSAHTGGDTQKEAKSVTHGGKQAALYNAAEDLDRDFFKMNNVEGRLSTPFHKVQNSSAGKRHNKKNKSKNAKSKVFSIENN
B10: YJR083C (protein, UniProt P47129 1-309, looked up)
Assembly-complementing factor …: MSEDQRVISQPIELHKLSIVDKHSQGQQQQPHQKQHEVQPESKSPRVTTPLKPKRLAIPISSPQRSTTNQSPVSDHASPISTDQDLIYKLAAKHREINELSFKLEVAQKELKQLELQFKDTLPRNGQQKLGNQNPSEYLSTFTKRIQQTFVDVNNSPNMLKGKKSINDFFSKPNNNVNSNINNTLPNRKPNPPPNRSQRMQNIAPSRSSESTPTSGPPLLPPRNTMKNANTTATAGENTPFLQRILNKFNQMNMEEDEFDDLLEKRKSKKDHYYIKENLGYEYDEVRSEDEDDEEFEPMGDIPVHLFKR

The molecules below were run on ABP1 (assay: DHFR-PCA on solid medium, bait ABP1 (Fig. 1B)). Settings: bait ABP1, label = prey; 2-4 replicates.
Type: cell-based, Saccharomyces cerevisiae
Text: Supplement 41467_2021_21873_MOESM8_ESM.xlsx, sheet "Fig1B" | column: medsize; medrep; Ratio; Score

| Molecule | medrep (log2 median colony size normalized to plate background, PCA score) |
| --- | --- |
| B1 | 2.12 |
| B2 | 2.693 |
| B3 | 1.596 |
| B4 | 3.386 |
| B5 | 1.64 |
| B6 | 4.233 |
| B7 | 3.322 |
| B8 | 2.801 |
| B9 | 1.414 |
| B10 | 1.804 |

Same assay, conditions: bait ABP1, label = prey; only significant differences showed; PPIs completely lost have a ratio of 0.1 and the gained PPIs 2.5

| Molecule | Ratio (SH3-deleted/WT medrep) |
| --- | --- |
| B9 | 0.1 |
| B10 | 0.1 |
